{"source": "patent US10406218B2", "about": "(priority 2014, dated 2019)", "molecules": {"B1": {"name": "Rv1196: MTB antigen currently included in TB vaccines in clinical development (protein, UniProt L7N675 1-391, looked up)", "PPE family protein PPE18": "MVDFGALPPEINSARMYAGPGSASLVAAAQMWDSVASDLFSAASAFQSVVWGLTVGSWIGSSAGLMVAAASPYVAWMSVTAGQAELTAAQVRVAAAAYETAYGLTVPPPVIAENRAELMILIATNLLGQNTPAIAVNEAEYGEMWAQDAAAMFGYAAATATATATLLPFEEAPEMTSAGGLLEQAAAVEEASDTAAANQLMNNVPQALQQLAQPTQGTTPSSKLGGLWKTVSPHRSPISNMVSMANNHMSMTNSGVSMTNTLSSMLKGFAPAAAAQAVQTAAQNGVRAMSSLGSSLGSSGLGGGVAANLGRAASVGSLSVPQAWAAANQAVTPAARALPLTSLTSAAERGPGQMLGGLPVGQMGARAGGGLSGVLRVPPRPYVMPHSPAAG"}, "B2": {"name": "Rv1886c: MTB antigen currently included in TB vaccines in clinical development (protein, UniProt P9WQP1 41-325, looked up)", "Diacylglycerol …": "FSRPGLPVEYLQVPSPSMGRDIKVQFQSGGNNSPAVYLLDGLRAQDDYNGWDINTPAFEWYYQSGLSIVMPVGGQSSFYSDWYSPACGKAGCQTYKWETFLTSELPQWLSANRAVKPTGSAAIGLSMAGSSAMILAAYHPQQFIYAGSLSALLDPSQGMGPSLIGLAMGDAGGYKAADMWGPSSDPAWERNDPTQQIPKLVANNTRLWVYCGNGTPNELGGANIPAEFLENFVRSSNLKFQDAYNAAGGHNAVFNFPPNGTHSWEYWGAQLNAMKGDLQSSLGAG"}, "B3": {"name": "Rv0288: MTB antigen currently included in TB vaccines in clinical development (protein, UniProt P9WNK3 1-96, looked up)", "ESAT-6-like protein EsxH": "MSQIMYNYPAMLGHAGDMAGYAGTLQSLGAEIAVEQAALQSAWQGDTGITYQAWQAQWNQAMEDLVRAYHAMSSTHEANTMAMMARDTAEAAKWGG"}}, "data": [{"system": "T cells of LTBI and HC donors", "test": "antigen reactivity in LTBI vs HC donors (LTBI-specific or crossreactive)", "assay_type": "cell-based, human", "settings": "response frequency and magnitude in LTBI vs HC donors, FIG. 10", "from_the_text": "The data herein implies that preexisting immunity and occasional boosting might be provided by exposure to NTMs, in a low MTB-complex exposure population such as the one from the general San Diego area. This might be viewed as desirable, or alternatively contributing an undesired confounding factor in evaluation of vaccination strategies. Regardless, whether or not preexisting, non-TB-complex related reactivity is present in the general population is an important issue has implication for the development of vaccination strategies. To further investigate this issue, epitope reactivity data (Lindestamm-Arlehamn et al, 2012) was mapped back to the specific antigens from which the epitopes were derived. Antigens recognized by 2 or more donors were further categorized as LTBI-specific or crossreactive according to the following criteria; antigens were categorized as LTBI-specific if there was a lack of reactivity in HC individuals, or if the ratio between response frequency and total SFC for LTBI/HC were >4. All other antigens were categorized as crossreactive.", "values": [{"molecule": "B1", "antigen reactivity category (LTBI-specific or crossreactive)": "exclusively specific"}, {"molecule": "B2", "antigen reactivity category (LTBI-specific or crossreactive)": "widely cross-reactive"}, {"molecule": "B3", "antigen reactivity category (LTBI-specific or crossreactive)": "widely cross-reactive"}]}]}
